Positions count from the first letter of the chain named. Numbers in names are those of the source. Where two headings read alike, the source gives them in different places. One block for each binder: values may come before it.
What was measured:
[1] = target: T1, mouse ANGPTL3/8 complex (mouse, UniProt Q9R182 17-455; Q8R1L8 16-198, limits assumed); test: cell-based or functional assay
T1 sequence (looked up) 1: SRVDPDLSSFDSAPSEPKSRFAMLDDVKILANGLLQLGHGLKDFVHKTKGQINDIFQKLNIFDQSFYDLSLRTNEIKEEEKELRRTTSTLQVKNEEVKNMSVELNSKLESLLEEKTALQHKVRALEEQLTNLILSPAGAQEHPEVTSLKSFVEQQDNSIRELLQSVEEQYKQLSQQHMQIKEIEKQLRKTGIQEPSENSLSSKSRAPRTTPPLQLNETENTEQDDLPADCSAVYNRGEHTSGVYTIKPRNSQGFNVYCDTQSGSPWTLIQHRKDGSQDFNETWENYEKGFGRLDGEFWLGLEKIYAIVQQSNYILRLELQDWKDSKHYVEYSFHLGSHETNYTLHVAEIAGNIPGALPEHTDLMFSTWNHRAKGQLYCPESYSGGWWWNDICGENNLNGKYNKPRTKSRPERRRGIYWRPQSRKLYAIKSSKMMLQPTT
T1 sequence (looked up) 2: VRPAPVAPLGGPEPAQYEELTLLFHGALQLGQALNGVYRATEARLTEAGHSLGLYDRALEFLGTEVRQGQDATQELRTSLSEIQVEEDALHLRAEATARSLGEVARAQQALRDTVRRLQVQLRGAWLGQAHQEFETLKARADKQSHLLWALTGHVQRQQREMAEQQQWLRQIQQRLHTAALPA

[2] = target: rat ANGPTL3/8 complex (rat, UniProt F7FHP0 17-446); test: cell-based or functional assay
Sequence of rat ANGPTL3/8 complex (F7FHP0 entry or part of it, one chain of several): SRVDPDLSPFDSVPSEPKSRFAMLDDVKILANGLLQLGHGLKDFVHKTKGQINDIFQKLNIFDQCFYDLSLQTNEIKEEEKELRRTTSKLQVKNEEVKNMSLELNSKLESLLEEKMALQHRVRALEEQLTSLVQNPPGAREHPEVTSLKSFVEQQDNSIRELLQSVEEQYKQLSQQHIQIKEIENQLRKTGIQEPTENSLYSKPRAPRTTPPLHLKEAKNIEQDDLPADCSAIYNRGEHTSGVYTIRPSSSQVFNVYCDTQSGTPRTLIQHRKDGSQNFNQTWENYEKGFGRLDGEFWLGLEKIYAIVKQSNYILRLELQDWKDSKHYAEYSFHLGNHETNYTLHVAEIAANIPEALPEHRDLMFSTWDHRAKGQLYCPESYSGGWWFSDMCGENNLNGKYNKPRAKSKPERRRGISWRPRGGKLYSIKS

[3] = target: T2, cynomolgus ANGPTL3/8 complex (cynomolgus, UniProt A0A2K5UDC5 17-460; A0A2K5WWS3 22-198); test: cell-based or functional assay
T2 sequence 1: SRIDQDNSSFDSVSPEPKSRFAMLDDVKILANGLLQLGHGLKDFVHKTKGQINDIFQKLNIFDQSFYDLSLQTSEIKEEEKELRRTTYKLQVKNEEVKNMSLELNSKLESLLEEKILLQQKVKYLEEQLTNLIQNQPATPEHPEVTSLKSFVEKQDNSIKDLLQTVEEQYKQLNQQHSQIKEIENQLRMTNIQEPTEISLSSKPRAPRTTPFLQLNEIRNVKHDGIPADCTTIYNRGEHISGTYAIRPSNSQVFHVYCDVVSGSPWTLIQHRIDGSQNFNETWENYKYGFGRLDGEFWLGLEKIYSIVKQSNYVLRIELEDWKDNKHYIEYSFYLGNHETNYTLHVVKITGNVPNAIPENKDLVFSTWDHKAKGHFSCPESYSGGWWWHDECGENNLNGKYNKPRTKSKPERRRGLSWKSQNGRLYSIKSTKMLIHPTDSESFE
T2 sequence 2: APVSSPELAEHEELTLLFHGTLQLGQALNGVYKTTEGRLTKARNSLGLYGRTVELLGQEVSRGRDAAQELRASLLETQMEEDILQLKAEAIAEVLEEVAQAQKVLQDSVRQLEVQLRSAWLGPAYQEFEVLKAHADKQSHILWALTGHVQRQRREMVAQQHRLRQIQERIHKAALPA

[4] = target: T3, human ANGPTL3/8 complex (human, UniProt Q9Y5C1 17-460; Q6UXH0 22-198, limits assumed); test: cell-based or functional assay
T3 sequence 1: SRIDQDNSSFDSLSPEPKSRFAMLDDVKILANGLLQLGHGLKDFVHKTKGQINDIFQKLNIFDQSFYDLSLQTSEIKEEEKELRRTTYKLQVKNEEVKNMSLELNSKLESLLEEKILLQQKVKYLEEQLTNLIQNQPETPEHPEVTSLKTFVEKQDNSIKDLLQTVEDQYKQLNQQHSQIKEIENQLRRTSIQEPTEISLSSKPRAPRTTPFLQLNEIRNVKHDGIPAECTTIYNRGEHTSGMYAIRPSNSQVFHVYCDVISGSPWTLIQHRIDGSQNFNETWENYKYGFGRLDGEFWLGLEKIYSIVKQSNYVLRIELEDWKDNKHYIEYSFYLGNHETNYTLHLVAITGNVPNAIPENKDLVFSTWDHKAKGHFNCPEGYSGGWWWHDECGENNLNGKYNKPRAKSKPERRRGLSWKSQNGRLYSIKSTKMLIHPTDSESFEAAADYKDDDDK
T3 sequence 2: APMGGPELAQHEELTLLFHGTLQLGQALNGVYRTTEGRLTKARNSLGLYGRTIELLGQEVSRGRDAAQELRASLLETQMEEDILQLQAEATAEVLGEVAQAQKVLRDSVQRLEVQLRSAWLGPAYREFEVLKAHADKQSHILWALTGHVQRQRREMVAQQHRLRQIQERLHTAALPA

[5] = target: T1, mouse ANGPTL3/8 complex; test: SPR, Biacore T200; Ab captured on Human Fab Binder, complex injected; pH 7.4, 25 C
[6] = target: T3, human ANGPTL3/8 complex; test: as above
[7] = target: T1, mouse ANGPTL3/8 complex; test: as above; remark: listed apart in the source
[8] = target: T2, cynomolgus ANGPTL3/8 complex; test: as above
[9] = target: T3, human ANGPTL3/8 complex; test: as above; remark: listed apart in the source

% Max Derepression of LPL [1]: 103%
Ab EC50 (nM), derepression of LPL [1]: 1.38 nM
% Max Derepression of LPL [2]: 105%
Ab EC50 (nM), derepression of LPL [2]: 2.77 nM
% Max Derepression of LPL [3]: 96%
Ab EC50 (nM), derepression of LPL [3]: 1.31 nM
% Max Derepression of LPL [4]: 102%
Ab EC50 (nM), derepression of LPL [4]: 0.28 nM
Kd [5]: 366 pM
koff [5]: 0.000172 s⁻¹
kon [5]: 475000 M⁻¹ s⁻¹
Kd [6]: 135 pM
koff [6]: 6.31e-05 s⁻¹
kon [6]: 477000 M⁻¹ s⁻¹
B1: anti-ANGPTL3/8 complex Ab having a LC of SEQ ID NO:5 and a HC of SEQ ID NO:6 (antibody, human IgG4 S228P, kappa, F234A L235A, V domains shown)
VH: QVTLKESGPTLVKPTQTLTLTCTFSGFSLSISGVGVGWIRQPPGKALEWLALIYRNDDKRYSPSLKSRLTITKDTSKNQVVLTLTNMDPVDTATYYCARTYSSGWYGNWFDPWGQGTLVTVSS
VL: DIVMTQTPLSLPVTPGEPASISCRSSQSLLDSDDGNTYLDWYLQKPGQSPQLLIYMLSYRASGVPDRFSGSGSGTDFTLKISRVEAEDVGIYYCMQRIEFPLTFGGGTKVEIKR
notes: In the ELISA assays tested as IgG from CHO supernatants; also called the Ab

Kd [7]: 218 pM
koff [7]: 0.000108 s⁻¹
kon [7]: 496000 M⁻¹ s⁻¹
Kd [8]: 365 pM
koff [8]: 0.000168 s⁻¹
kon [8]: 462000 M⁻¹ s⁻¹
Kd [9]: 116 pM
koff [9]: 5.75e-05 s⁻¹
kon [9]: 497000 M⁻¹ s⁻¹
B2: Ab with LC variant having a D31S mutation (SEQ ID NO:21) and a HC of SEQ ID NO:6 (antibody, human IgG4 S228P, kappa, F234A L235A, V domains shown)
VH: B1 VH
VL: B1 VL with D31S
notes: also called D31S Variant Ab; D31S Ab

Source: patent US20200199213A1 (Eli Lilly, published 2020)
